Test results as given in patent US10683329B2, “Dual-site BACE1 inhibitors” (priority 2014, dated 2020).
*1 amine or outer side, *2 acyl side, *3 side chain or, on linkers, in order; H or OH if unused. Where no end group is shown, it is not given here. [ ]: non-standard residue; d: D form. The star is where a group is joined. Chol‑27‑TFA‑ester = succinamic acid (3S,8S,9S,10R,13R,14S,17R)-17-[(1R,5R)-1,5-dimethyl-6-(2,2,2-trifluoro-acetoxy)-hexyl]-10,13-dimethyl-2,3,4,7,8,9,10,11,12,13,14,15,16,17-tetradecahydro-1H-cyclopenta[a]phenanthren-3-yl ester, C[C@H](CCC[C@@H](C)[C@H]1CC[C@H]2[C@@H]3CC=C4C[C@@H](OC(=O)CCC(=O)*)CC[C@]4(C)[C@H]3CC[C@]12C)COC(=O)C(F)(F)F; MetSta(3S,4S) = CSCC[C@H](N[*:1])[C@@H](O)CC(=O)[*:2]; Sta = CC(C)C[C@H](N)[C@@H](O)CC(=O)O; 27‑OH‑Chol = 27-hydroxycholesterol; PEG4 = NCCOCCOCCOCCOCCC(=O)O; Lauroyl = CCCCCCCCCCCC(=O)*; PEG3 = NCCOCCOCCOCCC(=O)O; Aun = NCCCCCCCCCCC(=O)O; Ahx = NCCCCCC(=O)O

B1: Tyr-Pro-Tyr-Phe-Ile-Pro-Leu-Gly-Gly-Gly-Glu-Val-Asn-Leu*Ala-Ala-Glu-DPro-Lys(Chol)-NH2 x TFA (peptide)
peptide: YPYFIPLGGGEVNLAAE[dP]K(Chol)-NH2
modifications: also: Leu14*Ala15 Tang hydroxyethylene dipeptide isostere, trifluoroacetate salt

Target: BACE1 enzyme (UniProt P56817 46-501, limits assumed)
Sequence (P56817 46-501 limits assumed): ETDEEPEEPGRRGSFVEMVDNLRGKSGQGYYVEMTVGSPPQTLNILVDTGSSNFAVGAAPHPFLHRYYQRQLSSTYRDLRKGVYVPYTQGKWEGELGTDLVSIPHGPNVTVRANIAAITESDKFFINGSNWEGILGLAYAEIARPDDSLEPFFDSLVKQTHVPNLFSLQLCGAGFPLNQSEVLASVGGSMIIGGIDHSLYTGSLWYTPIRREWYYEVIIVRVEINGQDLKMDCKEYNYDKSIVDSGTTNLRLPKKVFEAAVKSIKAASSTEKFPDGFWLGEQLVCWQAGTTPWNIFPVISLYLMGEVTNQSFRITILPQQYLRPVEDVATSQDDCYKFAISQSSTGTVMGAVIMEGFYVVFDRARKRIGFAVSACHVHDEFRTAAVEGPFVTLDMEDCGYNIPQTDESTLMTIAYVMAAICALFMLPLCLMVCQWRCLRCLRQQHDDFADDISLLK
Experiment: cell-based or functional assay

Binder | IC50, cellular Aβ-lowering assay (Aβ40 in supernatant of HEK293 cells expressing human APP695) [nM]
YPYFIPLGGGEVN[Sta]VAEFK(Chol)-NH2 (also: x TFA salt) [Tyr-Pro-Tyr-Phe-Ile-Pro-Leu-Gly-Gly-Gly-Glu-Val-Asn-Sta-Val-Ala-Glu-Phe-Lys(Chol)-NH2 x TFA] | 0.19
YPYFKPL[PEG4]EVN[Sta]VAE[dP]K(Chol)-NH2 (numbers in words are those of the source; also: 2TFA salt) [Tyr-Pro-Tyr-Phe-Lys-Pro-Leu-PEG(4)-Glu-Val-Asn-Sta-Val-Ala-Glu-DPro-Lys(Chol)-NH2 x 2TFA] | 0.0235
YPYFIPL[PEG3]EVN[MetSta(3S,4S)]VAE[dF]K(Chol)-NH2 (also: TFA salt) [Tyr-Pro-Tyr-Phe-Ile-Pro-Leu-PEG(3)-Glu-Val-Asn-MetSta-Val-Ala-Glu-DPhe-Lys(Chol)-NH2 x TFA] | 0.036
KPYFIPLG[dK]GEVN[Sta]VAE[dP]K(Chol'ester')-NH2 (also: x 3TFA salt) | 0.02
YPYFIKL[PEG4]EVN[Sta]VAE[dP]K(Chol)-NH2 (numbers in words are those of the source; also: x 2TFA salt) [Tyr-Pro-Tyr-Phe-Ile-Lys-Leu-PEG(4)-Glu-Val-Asn-Sta-Val-Ala-Glu-DPro-Lys(Chol)-NH2 x 2TFA] | 0.0228
YPYFIPL[dK]GGEVN[Sta]VAE[dP]K(Chol)-NH2 (also: x 2TFA salt) [Tyr-Pro-Tyr-Phe-Ile-Pro-Leu-DLys-Gly-Gly-Glu-Val-Asn-Sta-Val-Ala-Glu-DPro-Lys(Chol)-NH2 x 2TFA] | 0.177
YPKFIPLGGGEVN[Sta]VAE[dP]K(Chol)-NH2 (also: x 2TFA salt) [Tyr-Pro-Lys-Phe-Ile-Pro-Leu-Gly-Gly-Gly-Glu-Val-Asn-Sta-Val-Ala-Glu-DPro-Lys(Chol)-NH2 x 2TFA] | 0.0135
YPYFIPLGGGEVN[Sta]VAE[dP]K(27‑OH‑Chol)-NH2 (also: x TFA salt) [Tyr-Pro-Tyr-Phe-Ile-Pro-Leu-Gly-Gly-Gly-Glu-Val-Asn-Sta-Val-Ala-Glu-DPro-Lys(27-OH-Chol)-NH2 x TFA] | 6.3
YPYFIPLGGGGGEVNXVAEFK (MetSta at 16; DPhe at 20; Lys(Chol) at 21; C-terminal NH2) | 0.07
YPYFKPLG[dK]GEVN[Sta]VAE[dP]K(Chol)-NH2 (also: 3TFA salt) [Tyr-Pro-Tyr-Phe-Lys-Pro-Leu-Gly-DLys-Gly-Glu-Val-Asn-Sta-Val-Ala-Glu-DPro-Lys(Chol)-NH2 x 3TFA] | 0.0263
YPYFIPL[PEG3]EVN[Sta]VAE[dP]K(Chol)-NH2 (also: TFA salt) [Tyr-Pro-Tyr-Phe-Ile-Pro-Leu-PEG(3)-Glu-Val-Asn-Sta-Val-Ala-Glu-DPro-Lys(Chol)-NH2 x TFA] | 0.043
YPYFIPLG[dK]GEVN[Sta]VAE[dP]K(Chol'ester')-NH2 (also: x 2TFA salt) | 0.025
YPYFIPLGGGEVN[Sta]VAE[dP]K(Chol)-NH2 (also: x TFA salt) [Tyr-Pro-Tyr-Phe-Ile-Pro-Leu-Gly-Gly-Gly-Glu-Val-Asn-Sta-Val-Ala-Glu-DPro-Lys(Chol)-NH2 x TFA] | 0.027
YPYFKPLGGGEVN[Sta]VAE[dP]K(Chol)-NH2 (also: 2TFA salt) [Tyr-Pro-Tyr-Phe-Lys-Pro-Leu-Gly-Gly-Gly-Glu-Val-Asn-Sta-Val-Ala-Glu-DPro-Lys(Chol)-NH2 x 2TFA] | 0.00732
YPYFIPLGGEVN[Sta]VAE[dP]K(Chol)-NH2 (also: x TFA salt) [Tyr-Pro-Tyr-Phe-Ile-Pro-Leu-Gly-Gly-Glu-Val-Asn-Sta-Val-Ala-Glu-DPro-Lys(Chol)-NH2 x TFA] | 0.27
YPYFIPLGGGEVN[Sta]VAE[dP]K(Lauroyl)-NH2 (also: x TFA salt) [Tyr-Pro-Tyr-Phe-Ile-Pro-Leu-Gly-Gly-Gly-Glu-Val-Asn-Sta-Val-Ala-Glu-DPro-Lys(C12)-NH2 x TFA] | 450
YPYFIPLGGKEVN[Sta]VAE[dP]K(Chol)-NH2 (also: 2TFA salt) [Tyr-Pro-Tyr-Phe-Ile-Pro-Leu-Gly-Gly-Lys-Glu-Val-Asn-Sta-Val-Ala-Glu-DPro-Lys(Chol)-NH2 x 2TFA] | 0.0771
YPYFIPLGGGGGGEVN[Sta]VAE[dP]K(Chol)-NH2 (also: TFA salt) | 0.028
YPKFIPLG[dK]GEVN[Sta]VAE[dP]K(Chol'ether')-NH2 (also: x 3TFA salt) | 0.00828
LIYFPYPGGGGEVN[Sta]VAE[dP]K(Chol)-NH2 (also: x TFA salt) [Leu-Ile-Tyr-Phe-Pro-Tyr-Pro-Gly-Gly-Gly-Gly-Glu-Val-Asn-Sta-Val-Ala-Glu-DPro-Lys(Chol)-NH2 x TFA] | 0.28
LIYFPYPGGGEVN[Sta]VAE[dP]K(Chol)-NH2 (also: x TFA salt) [Leu-Ile-Tyr-Phe-Pro-Tyr-Pro-Gly-Gly-Gly-Glu-Val-Asn-Sta-Val-Ala-Glu-DPro-Lys(Chol)-NH2 x TFA] | 0.22

Binder | IC50, cellular Aβ-lowering assay (Aβ40 in supernatant of HEK293 cells expressing human APP695) [nM]
YPYFIPL[PEG4]EVN[Sta]VAE[dP]K(Chol)-NH2 (also: TFA salt) [Tyr-Pro-Tyr-Phe-Ile-Pro-Leu-PEG(4)-Glu-Val-Asn-Sta-Val-Ala-Glu-DPro-Lys(Chol)-NH2 x TFA] | 0.027
YPYFIKLGGGEVN[Sta]VAE[dP]K(Chol)-NH2 (also: x 2TFA salt) [Tyr-Pro-Tyr-Phe-Ile-Lys-Leu-Gly-Gly-Gly-Glu-Val-Asn-Sta-Val-Ala-Glu-DPro-Lys(Chol)-NH2 x 2TFA] | 0.0117
YPYFIPLGGGEVN[MetSta(3S,4S)]VAE[dF]K(C14)-NH2 (also: x TFA salt) [Tyr-Pro-Tyr-Phe-Ile-Pro-Leu-Gly-Gly-Gly-Glu-Val-Asn-MetSta-Val-Ala-Glu-DPhe-Lys(C14)-NH2 x TFA] | 1260
YPYFIPLGGGEVN[Sta]VAE[dP]K(Chol'ether')-NH2 (also: x TFA salt) [Tyr-Pro-Tyr-Phe-Ile-Pro-Leu-Gly-Gly-Gly-Glu-Val-Asn-Sta-Val-Ala-Glu-DPro-Lys(Chol'ether')-NH2 x TFA] | 0.0264
YPKFKPLG[dK]GEVN[Sta]VAE[dP]K(Chol)-NH2 (also: x 4TFA salt) [Tyr-Pro-Lys-Phe-Lys-Pro-Leu-Gly-DLys-Gly-Glu-Val-Asn-Sta-Val-Ala-Glu-DPro-Lys(Chol)-NH2 x 4TFA] | 0.0218
Ac-YPYFIPLGGGEVN[Sta]VAE[dP]K(Chol)-NH2 (also: x TFA salt) [Ac-Tyr-Pro-Tyr-Phe-Ile-Pro-Leu-Gly-Gly-Gly-Glu-Val-Asn-Sta-Val-Ala-Glu-DPro-Lys(Chol)-NH2] | 0.017
YPYFIPLGKGEVN[Sta]VAE[dP]K(Chol)-NH2 (also: 2TFA salt) [Tyr-Pro-Tyr-Phe-Ile-Pro-Leu-Gly-Lys-Gly-Glu-Val-Asn-Sta-Val-Ala-Glu-DPro-Lys(Chol)-NH2 x 2TFA] | 0.0295
YPYFIPLGG[dK]EVN[Sta]VAE[dP]K(Chol)-NH2 (also: x 2TFA salt) [Tyr-Pro-Tyr-Phe-Ile-Pro-Leu-Gly-Gly-DLys-Glu-Val-Asn-Sta-Val-Ala-Glu-DPro-Lys(Chol)-NH2 x 2TFA] | 0.118
YPYFIPLGGGEVN[Sta]DAE[dP]K(Chol)-NH2 (also: x TFA salt) [Tyr-Pro-Tyr-Phe-Ile-Pro-Leu-Gly-Gly-Gly-Glu-Val-Asn-Sta-Asp-Ala-Glu-DPro-Lys(Chol)-NH2 x TFA] | 18
YPYFIPLGGGEVN[Sta]VAE[dP]K(C14)-NH2 (also: x TFA salt) [Tyr-Pro-Tyr-Phe-Ile-Pro-Leu-Gly-Gly-Gly-Glu-Val-Asn-Sta-Val-Ala-Glu-DPro-Lys(C14)-NH2 x TFA] | 140
YPYFIPLKGGEVN[Sta]VAE[dP]K(Chol)-NH2 (also: 2TFA salt) [Tyr-Pro-Tyr-Phe-Ile-Pro-Leu-Lys-Gly-Gly-Glu-Val-Asn-Sta-Val-Ala-Glu-DPro-Lys(Chol)-NH2 x 2TFA] | 0.0235
YPYFIPL[Ahx]EVN[Sta]VAE[dP]K(Chol)-NH2 (also: TFA salt) [Tyr-Pro-Tyr-Phe-Ile-Pro-Leu-NH(CH2)5CO-Glu-Val-Asn-Sta-Val-Ala-Glu-DPro-Lys(Chol)-NH2 x TFA] | 0.075
B1 | 0.0024
YPYFIKLG[dK]GEVN[Sta]VAE[dP]K(Chol)-NH2 (also: x 3TFA salt) [Tyr-Pro-Tyr-Phe-Ile-Lys-Leu-Gly-DLys-Gly-Glu-Val-Asn-Sta-Val-Ala-Glu-DPro-Lys(Chol)-NH2 x 3TFA] | 0.0176
YPYFIPLGGGEVN[Sta]VAE[dP]K(Chol‑27‑TFA‑ester)-NH2 (also: x TFA salt) | 5.2
YPYFIPL[PEG4]EVN[MetSta(3S,4S)]VAE[dF]K(Chol)-NH2 (also: TFA salt) [Tyr-Pro-Tyr-Phe-Ile-Pro-Leu-PEG(4)-Glu-Val-Asn-MetSta-Val-Ala-Glu-DPhe-Lys(Chol)-NH2 x TFA] | 0.018
YPYFIPLGGGGEVNXVAEFK (MetSta at 15; DPhe at 19; Lys(Chol) at 20; C-terminal NH2) [Tyr-Pro-Tyr-Phe-Ile-Pro-Leu-Gly-Gly-Gly-Gly-Glu-Val-Asn-MetSta-Val-Ala-Glu-DPhe-Lys(Chol)-NH2 x TFA] | 0.052
YPYFIPL[Aun]EVN[Sta]VAE[dP]K(Chol)-NH2 (also: TFA salt) [Tyr-Pro-Tyr-Phe-Ile-Pro-Leu-NH(CH2)10CO-Glu-Val-Asn-Sta-Val-Ala-Glu-DPro-Lys(Chol)-NH2 x TFA] | 0.36
YPKFIPLG[dK]GEVN[Sta]VAE[dP]K(Chol)-NH2 (also: x 3TFA salt) [Tyr-Pro-Lys-Phe-Ile-Pro-Leu-Gly-DLys-Gly-Glu-Val-Asn-Sta-Val-Ala-Glu-DPro-Lys(Chol)-NH2 x 3TFA] | 0.0203
Ac-YPYFIPL[PEG4]EVN[Sta]VAE[dP]K(Chol)-NH2 [Ac-Tyr-Pro-Tyr-Phe-Ile-Pro-Leu-PEG(4)-Glu-Val-Asn-Sta-Val-Ala-Glu-DPro-Lys(Chol)-NH2] | 0.041
